One assay deals with NMDAR. In words: NMDAR EPSCs in DCN cartwheel cells in brain slices, ZX1 potentiation. Format: cell-based, mice. The settings on record: nimodipine 20 μM at least 20 minutes prior to recordings; ZX1 100 μM.
The next assay has as its target T1, GluN1/2A receptors (Rattus norvegicus, UniProt Q00959).
T1 construct: expressed in transfected cells; host or cells: human embryonic kidney tSA201 cells
As to the kind of experiment: Zinc inhibition of glutamate-evoked currents in tSA201 cells transfected with GluN1/GluN2A. Format: cell-based. As to conditions: vehicle, 1 mM glutamate steady-state current, read-out: IC50 for zinc block in vehicle treated cells. The procedure: Human embryonic kidney tSA201 cells were maintained in DMEM supplemented with 10% fetal bovine serum and 1% GlutaMAX, as previously described (Glasgow and Johnson, 2014). Cells were plated in 35 mm petri dishes with three 15 mm glass coverslips treated with poly D-lysine (0.1 mg/ml) and rat-tail collagen (0.1 mg/ml) at a density of 1×10^5 cells/dish. Eighteen to 30 hours after plating, the cells were co-transfected using FuGENE 6 Transfection Reagent with cDNA encoding enhanced green fluorescent protein (eGFP), for identification of transfected cells, and WT rat NMDAR subunits GluN1-1a (GluN1; GenBank X63255) and GluN2A (GenBank M91561 in pcDNA1). GluN1-1 a and eGFP were expressed using a specialized pCl-neo vector with cDNA encoding eGFP inserted between the CMV promoter and the GluN1 open reading frame (Yi et al., 2018). […]
Whole-cell voltage-clamp recordings from tSA201 cells were performed 18-30 hours after transfection. […] Whole-cell currents were recorded using an Axopatch 200A patch-clamp amplifier (Molecular Devices), low-pass filtered at 5 kHz, and sampled at 20 kHz in pClamp10.7 (Molecular Devices). In all recordings from tSA201 cells, series resistance was compensated 85-90% and an empirically determined −6 mV liquid junction potential between the intracellular pipette solution and the extracellular recording solution was corrected. […]

The target in assay [1] is ZnT1 in mouse brain slices (mouse) (UniProt Q60738). In words: cell-based or functional assay.
Assay [2] deals with T2, GluN2A subunit of NMDAR in rat cortical cultures (rat, UniProt Q00959 23-1464).
T2 construct: whole, on cells; Endogenous protein in neurons, detected with a mouse anti-GluN2A antibody in the PLA
As to the kind of experiment: proximity ligation assay in rat cortical cultures (FIG. 3A legend).

The text below walks through data of patent US20230034660A1, “PEPTIDES THAT ENHANCE NMDA RECEPTOR FUNCTION AND USE THEREOF” (University of Pittsburgh - Of the Commonwealth System of …, priority 2019, published 2023).

T2 sequence (Q00959 23-1464): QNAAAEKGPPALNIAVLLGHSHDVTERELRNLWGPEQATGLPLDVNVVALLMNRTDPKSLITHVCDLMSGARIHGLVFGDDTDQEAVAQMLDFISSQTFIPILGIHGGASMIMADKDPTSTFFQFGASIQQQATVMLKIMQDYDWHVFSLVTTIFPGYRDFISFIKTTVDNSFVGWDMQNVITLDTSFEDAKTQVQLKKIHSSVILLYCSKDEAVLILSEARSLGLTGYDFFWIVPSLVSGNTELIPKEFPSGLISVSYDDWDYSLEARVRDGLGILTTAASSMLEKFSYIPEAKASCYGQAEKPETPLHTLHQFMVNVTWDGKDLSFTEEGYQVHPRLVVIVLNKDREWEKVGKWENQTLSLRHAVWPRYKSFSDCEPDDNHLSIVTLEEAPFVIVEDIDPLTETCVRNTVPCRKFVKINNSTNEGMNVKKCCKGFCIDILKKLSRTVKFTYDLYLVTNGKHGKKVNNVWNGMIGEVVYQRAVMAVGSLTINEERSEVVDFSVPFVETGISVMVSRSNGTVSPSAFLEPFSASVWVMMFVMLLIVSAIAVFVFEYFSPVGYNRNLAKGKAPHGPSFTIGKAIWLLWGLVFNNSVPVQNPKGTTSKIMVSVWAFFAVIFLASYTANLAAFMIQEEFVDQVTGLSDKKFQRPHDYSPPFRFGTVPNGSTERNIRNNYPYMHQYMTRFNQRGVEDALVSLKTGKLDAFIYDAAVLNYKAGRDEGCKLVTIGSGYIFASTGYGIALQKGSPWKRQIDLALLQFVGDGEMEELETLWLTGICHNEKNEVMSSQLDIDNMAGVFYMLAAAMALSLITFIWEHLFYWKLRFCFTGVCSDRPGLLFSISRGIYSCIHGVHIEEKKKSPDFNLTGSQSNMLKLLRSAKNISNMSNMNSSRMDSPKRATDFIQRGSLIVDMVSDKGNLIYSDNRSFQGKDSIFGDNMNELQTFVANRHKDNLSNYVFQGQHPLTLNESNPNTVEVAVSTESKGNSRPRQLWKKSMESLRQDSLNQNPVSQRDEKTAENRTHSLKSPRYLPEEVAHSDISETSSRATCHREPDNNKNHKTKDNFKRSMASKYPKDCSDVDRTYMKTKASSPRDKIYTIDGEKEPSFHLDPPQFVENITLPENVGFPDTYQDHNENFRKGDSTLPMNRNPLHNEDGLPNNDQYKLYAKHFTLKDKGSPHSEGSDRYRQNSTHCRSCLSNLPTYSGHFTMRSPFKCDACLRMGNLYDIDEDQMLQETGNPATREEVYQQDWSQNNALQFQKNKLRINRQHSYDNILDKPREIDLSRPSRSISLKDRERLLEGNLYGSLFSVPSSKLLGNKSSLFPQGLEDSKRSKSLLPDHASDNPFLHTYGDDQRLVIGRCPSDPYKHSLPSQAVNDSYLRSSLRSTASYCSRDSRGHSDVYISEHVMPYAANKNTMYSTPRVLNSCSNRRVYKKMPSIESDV
T1 sequence (Q00959 23-1464, other chains not shown): as the sequence (Q00959 23-1464) above

As for `COCCOC(=O)C1=C(C)NC(C)=C(C(=O)OC(C)C)C1c1cccc([N+](=O)[O-])c1` (centres unmarked) [Nimodipine, reference compound], the “ZX1 potentiation of NMDAR EPSCs in nimodipine-treated slices” value with NMDAR was 23.6±6.9%.
As to `[Zn+2]` [zinc], the IC50 at GluN1/2A receptors stood at 21.8 ± 2.09 nM.
“GluN2A subunit of NMDAR in mouse brain slices (from UniProt P35436 23-1464) (receptor)”: in assay [1], the Average effect of ZX1 on L2/3 PN NMDAR Lev-EPSCs amplitudes normalized to control, auditory cortex slices incubated with scramble was determined as 159%; the Average effect of ZX1 on L2/3 PN NMDAR Lev-EPSCs amplitudes normalized to control, auditory cortex slices incubated with the peptide was determined as 99%; the ZX1 potentiation of NMDAR EPSCs, DCN cartwheel cells, 100 Hz, slices treated with N2AZ was determined as 1.95%; the ZX1 potentiation of NMDAR-mediated synaptic currents, DCN cartwheel cells, 20 Hz, slices treated with N2AZ (3 µM) was found to be 19.4%. For the same molecule, the ZX1 potentiation of NMDAR-mediated synaptic currents, DCN cartwheel cells, 20 Hz, slices treated with scN2AZ (3 µM) in assay [1] came out at 47.3%.

B1: ZnT1 in rat cortical cultures (other, UniProt Q62720 1-507, looked up)
chain: MGCWGRNRGRLLCMLLLTFMFMVLEVVVSRVTASLAMLSDSFHMLSDVLALVVALVAERFARRTHATQKNTFGWIRAEVMGALVNAIFLTGLCFAILLEAVERFIEPHEMQQPLVVLSVGVAGLLVNVLGLCLFHHHSGEGQGAGHGHSHGHGHGHLAKGARKAGRAGGEAGAPPGRAPDQEPDQEETNTLVANTSNSNGLKADQAEPEKLRSDDPVDVQVNGNLIQESDSLESEDNRAGQLNMRGVFLHVLGDALGSVIVVVNALVFYFSWKGCTEDDFCVNPCFPDPCKSSVELMNSTQAPMHEAGPCWVLYLDPTLCIIMVCILLYTTYPLLKESALILLQTVPKQIDIKHLVKELRDVEGVEEVHELHVWQLAGSRIIATAHIKCEDPASYMQVAKTIKDVFHNHGIHATTIQPEFASVGSKSSVVPCELACRTQCALKQCCGTRPQVHSGKEAEKAPTVSISCLELSENLEKKPRRTKAEGSVPAVVIEIKNVPNKQPESSL
notes: whole, on cells; Endogenous protein in neurons, detected with a rabbit anti-ZnT1 antibody in the PLA; also called zinc transporter 1
In the case of B1, the binding result in assay [2] is listed as “binds”.

In general, IC50 refers to the concentration that inhibits the measured activity by half.
